These are literature values, as cited in article PMC4980809.

For the data set, the target named is titin ZR7 (Homo sapiens) (UniProt Q8WZ42).
Sequence of titin ZR7 (Homo sapiens) (Q8WZ42 692-740): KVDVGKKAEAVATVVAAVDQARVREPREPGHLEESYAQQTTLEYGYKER

Sequence of alpha-actinin-2 EF3/4 domain (P35609 823-894): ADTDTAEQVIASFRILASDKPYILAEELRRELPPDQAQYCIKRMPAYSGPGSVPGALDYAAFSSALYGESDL

“alpha-actinin-2 EF3/4 domain (from UniProt P35609)”: the Kd was 380 nM.

What is called Kd is the constant that tells how readily two partners part at equilibrium.
